Key:
[1] = molecular target: HLA-B*15:02; experiment: IEDB peptide-MHC binding, purified MHC/competitive/fluorescence; filed as Kd, often an IC50 or EC50 that approximates it; ≥ and ≤ were set here for values at or beyond the usual limits of such assays
[2] = molecular target: HLA-A*01:01; experiment: IEDB peptide-MHC binding, purified MHC/direct/fluorescence; filed as Kd, often an IC50 or EC50 that approximates it; ≥ and ≤ were set here for values at or beyond the usual limits of such assays
[3] = molecular target: HLA-A*80:01; experiment: as above; conditions: source organism: Francisella tularensis subsp. holarctica LVS
[4] = molecular target: HLA-C*08:02; experiment: as above
[5] = molecular target: HLA-A*02:01; experiment: as above
[6] = molecular target: HLA-A*02:03; experiment: as above
[7] = molecular target: HLA-A*02:11; experiment: as above
[8] = molecular target: HLA-A*02:12; experiment: as above
[9] = molecular target: HLA-A*02:16; experiment: as above
[10] = molecular target: HLA-A*02:19; experiment: as above
[11] = molecular target: HLA-A*24:03; experiment: as above
[12] = molecular target: HLA-A*26:01; experiment: as above
[13] = molecular target: HLA-A*68:02; experiment: as above
[14] = molecular target: HLA-A*69:01; experiment: as above
[15] = molecular target: HLA-B*07:02; experiment: as above
[16] = molecular target: HLA-B*15:01; experiment: as above
[17] = molecular target: HLA-B*18:01; experiment: as above
[18] = molecular target: HLA-B*27:03; experiment: as above
[19] = molecular target: HLA-B*35:01; experiment: as above
[20] = molecular target: HLA-B*39:01; experiment: as above
[21] = molecular target: HLA-B*46:01; experiment: as above
[22] = molecular target: HLA-B*51:01; experiment: as above
[23] = molecular target: HLA-C*12:03; experiment: as above
[24] = molecular target: HLA-A*03:01; experiment: as above
[25] = molecular target: HLA-A*29:02; experiment: as above; conditions: source organism: Rickettsia sibirica 246
[26] = molecular target: HLA-B*15:17; experiment: as above; conditions: source organism: Rickettsia sibirica 246
[27] = molecular target: HLA-B*57:01; experiment: as above
[28] = molecular target: HLA-B*48:01; experiment: as above; conditions: source organism: Burkholderia mallei
[29] = molecular target: HLA-A*11:01; experiment: as above; conditions: source organism: Pseudomonas aeruginosa
[30] = molecular target: HLA-A*31:01; experiment: as above; conditions: source organism: Pseudomonas aeruginosa
[31] = molecular target: HLA-B*08:01; experiment: as above; conditions: source organism: Pseudomonas aeruginosa
[32] = molecular target: HLA-B*27:05; experiment: as above; conditions: source organism: Pseudomonas aeruginosa
[33] = molecular target: HLA-B*40:01; experiment: as above; conditions: source organism: Pseudomonas aeruginosa
[34] = molecular target: HLA-B*58:01; experiment: as above; conditions: source organism: Pseudomonas aeruginosa
[35] = molecular target: HLA-C*14:02; experiment: as above
[36] = molecular target: HLA-C*15:02; experiment: as above; conditions: source organism: Vibrio vulnificus YJ016
[37] = molecular target: HLA-B*15:42; experiment: IEDB peptide-MHC binding, purified MHC/competitive/fluorescence; filed as Kd, often an IC50 or EC50 that approximates it; ≥ and ≤ were set here for values at or beyond the usual limits of such assays; conditions: source organism: Vibrio vulnificus YJ016
[38] = molecular target: HLA-B*45:06; experiment: as above; conditions: source organism: Vibrio vulnificus YJ016
[39] = molecular target: HLA-B*83:01; experiment: as above; conditions: source organism: Vibrio vulnificus YJ016
[40] = molecular target: HLA-C*06:02; experiment: as above; conditions: source organism: Vibrio vulnificus YJ016
[41] = molecular target: HLA-A*01:01; experiment: IEDB peptide-MHC binding, purified MHC/competitive/fluorescence; ≥ and ≤ were set here for values at or beyond the usual limits of such assays; conditions: source organism: Sudan ebolavirus
[42] = molecular target: HLA-B*15:01; experiment: as above; conditions: source organism: Sudan ebolavirus
[43] = molecular target: HLA-B*46:01; experiment: IEDB peptide-MHC binding, purified MHC/competitive/fluorescence; filed as Kd, often an IC50 or EC50 that approximates it; ≥ and ≤ were set here for values at or beyond the usual limits of such assays; conditions: source organism: Shigella sonnei Ss046
[44] = source organism: Squirrelpox virus
[45] = source organism: Giardia lamblia ATCC 50803
[46] = source organism: Rickettsia sibirica 246
[47] = source organism: Pseudomonas aeruginosa
[48] = source organism: Vibrio vulnificus
[49] = source organism: Vibrio vulnificus YJ016
[50] = source organism: Escherichia coli O157:H7 str. EC4486
[51] = source organism: Yersinia pestis CO92

**Q.** How did the Kd ([1]; source organism: Brucella canis ATCC 23365) turn out when SALGFTGVY was run?
**A.** 0.385 µM

**Q.** Which results are given for LSDNLSLVY?
**A.** Kd ([2]; source organism: Francisella tularensis subsp. holarctica LVS): ≤ 0.001 µM; Kd [3]: 0.168 µM; Kd ([4]; source organism: Francisella tularensis subsp. tularensis FSC198): 0.552 µM

**Q.** Which Kd [5, 44] does the source give for MACHRVLTY here?
**A.** ≥ 20 µM

**Q.** What about the Kd [6, 44] of the same sequence?
**A.** ≥ 20 µM

**Q.** And the Kd [7, 44]?
**A.** ≥ 20 µM

**Q.** And the Kd [8, 44]?
**A.** ≥ 20 µM

**Q.** And the Kd [9, 44]?
**A.** ≥ 20 µM

**Q.** And the Kd [10, 44]?
**A.** ≥ 20 µM

**Q.** And the Kd [11, 44]?
**A.** ≥ 20 µM

**Q.** What about the Kd [12, 44] of the same sequence?
**A.** ≥ 20 µM

**Q.** And the Kd [13, 44]?
**A.** ≥ 20 µM

**Q.** And the Kd [14, 44]?
**A.** ≥ 20 µM

**Q.** What about the Kd [15, 44] of the same sequence?
**A.** ≥ 20 µM

**Q.** And the Kd [16, 44]?
**A.** 0.104 µM

**Q.** What about the Kd [17, 44] of the same sequence?
**A.** ≥ 20 µM

**Q.** And the Kd [18, 44]?
**A.** ≥ 20 µM

**Q.** And the Kd [19, 44]?
**A.** 0.021 µM

**Q.** What about the Kd [20, 44] of the same sequence?
**A.** ≥ 20 µM

**Q.** What about the Kd [21, 44] of the same sequence?
**A.** ≥ 20 µM

**Q.** And the Kd [22, 44]?
**A.** ≥ 20 µM

**Q.** And the Kd [23, 44]?
**A.** 0.018 µM

**Q.** LTIVFVPEV was tested. Which Kd [5, 45] did it give?
**A.** 0.004 µM

**Q.** What about the Kd [24, 45] of the same sequence?
**A.** ≥ 20 µM

**Q.** And the Kd [12, 45]?
**A.** ≥ 20 µM

**Q.** What about the Kd [16, 45] of the same sequence?
**A.** ≥ 20 µM

**Q.** What about the Kd [17, 45] of the same sequence?
**A.** ≥ 20 µM

**Q.** And the Kd [18, 45]?
**A.** ≥ 20 µM

**Q.** What about the Kd [20, 45] of the same sequence?
**A.** ≥ 20 µM

**Q.** And the Kd [21, 45]?
**A.** ≥ 20 µM

**Q.** With ELNASFIVF as the sequence, how does the Kd ([1]; source organism: Rickettsia massiliae MTU5) read?
**A.** 0.182 µM

**Q.** EFVSANLAM was tested. Which Kd [5, 46] did it give?
**A.** ≥ 20 µM

**Q.** What about the Kd [6, 46] of the same sequence?
**A.** ≥ 20 µM

**Q.** What about the Kd [7, 46] of the same sequence?
**A.** ≥ 20 µM

**Q.** What about the Kd [8, 46] of the same sequence?
**A.** ≥ 20 µM

**Q.** What about the Kd [9, 46] of the same sequence?
**A.** ≥ 20 µM

**Q.** And the Kd [10, 46]?
**A.** ≥ 20 µM

**Q.** And the Kd [24, 46]?
**A.** ≥ 20 µM

**Q.** What about the Kd [11, 46] of the same sequence?
**A.** ≥ 20 µM

**Q.** And the Kd [12, 46]?
**A.** ≥ 20 µM

**Q.** What about the Kd [25] of the same sequence?
**A.** ≥ 20 µM

**Q.** And the Kd [13, 46]?
**A.** ≥ 20 µM

**Q.** And the Kd [14, 46]?
**A.** ≥ 20 µM

**Q.** And the Kd [15, 46]?
**A.** ≥ 20 µM

**Q.** What about the Kd [16, 46] of the same sequence?
**A.** ≥ 20 µM

**Q.** And the Kd [26]?
**A.** ≥ 20 µM

**Q.** What about the Kd [17, 46] of the same sequence?
**A.** ≥ 20 µM

**Q.** What about the Kd [18, 46] of the same sequence?
**A.** ≥ 20 µM

**Q.** And the Kd [19, 46]?
**A.** 0.052 µM

**Q.** And the Kd [20, 46]?
**A.** ≥ 20 µM

**Q.** What about the Kd [21, 46] of the same sequence?
**A.** ≥ 20 µM

**Q.** What about the Kd [22, 46] of the same sequence?
**A.** ≥ 20 µM

**Q.** And the Kd [27, 46]?
**A.** ≥ 20 µM

**Q.** Which results are given for FQPQSGNAM?
**A.** Kd [28]: 2.53 µM; Kd ([4]; source organism: Burkholderia mallei NCTC 10229): 0.576 µM

**Q.** For ALEPGFKDY, which Kd [2, 47] is on record?
**A.** 2 µM

**Q.** And the Kd [5, 47]?
**A.** ≥ 20 µM

**Q.** What about the Kd [24, 47] of the same sequence?
**A.** ≥ 20 µM

**Q.** What about the Kd [29] of the same sequence?
**A.** ≥ 20 µM

**Q.** And the Kd [12, 47]?
**A.** ≥ 20 µM

**Q.** What about the Kd [30] of the same sequence?
**A.** ≥ 20 µM

**Q.** And the Kd [14, 47]?
**A.** ≥ 20 µM

**Q.** What about the Kd [15, 47] of the same sequence?
**A.** ≥ 20 µM

**Q.** What about the Kd [31] of the same sequence?
**A.** ≥ 20 µM

**Q.** What about the Kd [16, 47] of the same sequence?
**A.** 0.482 µM

**Q.** And the Kd [32]?
**A.** ≥ 20 µM

**Q.** What about the Kd [33] of the same sequence?
**A.** ≥ 20 µM

**Q.** And the Kd [34]?
**A.** ≥ 20 µM

**Q.** What about the Kd ([1]; source organism: Pseudomonas aeruginosa PACS2) of the same sequence?
**A.** 0.814 µM

**Q.** Which Kd [15, 48] does the source give for YLRKHIRAL here?
**A.** 0.003 µM

**Q.** What about the Kd ([16]; source organism: Vibrio vulnificus CMCP6) of the same sequence?
**A.** 0.024 µM

**Q.** And the Kd [22, 48]?
**A.** ≥ 20 µM

**Q.** And the Kd [23, 49]?
**A.** 0.193 µM

**Q.** And the Kd [35, 49]?
**A.** 0.099 µM

**Q.** And the Kd [36]?
**A.** ≥ 20 µM

**Q.** What about the Kd [37] of the same sequence?
**A.** ≥ 5 µM

**Q.** And the Kd [38]?
**A.** ≥ 5 µM

**Q.** And the Kd [39]?
**A.** ≥ 5 µM

**Q.** What about the Kd [40] of the same sequence?
**A.** 0.482 µM

**Q.** What does the source list for TSSYYATSY?
**A.** IC50 [41]: 2.01 µM; IC50 [42]: 14.3 µM

**Q.** With YAMMSLFDM as the sequence, how does the Kd [6, 50] read?
**A.** ≥ 20 µM

**Q.** What about the Kd [24, 50] of the same sequence?
**A.** ≥ 20 µM

**Q.** What about the Kd [12, 50] of the same sequence?
**A.** ≥ 20 µM

**Q.** And the Kd [15, 50]?
**A.** 18.4 µM

**Q.** And the Kd [17, 50]?
**A.** ≥ 20 µM

**Q.** And the Kd [18, 50]?
**A.** ≥ 20 µM

**Q.** And the Kd [19, 50]?
**A.** 0.004 µM

**Q.** And the Kd [22, 50]?
**A.** ≥ 20 µM

**Q.** What about the Kd [27, 50] of the same sequence?
**A.** ≥ 20 µM

**Q.** And the Kd [43]?
**A.** 0.113 µM

**Q.** Which results are given for KIMQVDRPM?
**A.** Kd [35, 51]: 0.102 µM; Kd [1, 51]: 4 µM
